Assay results: patent US20220177583A1 (University of California, published 2022)

T1: human CLDN6, endogenously expressed on cancer cell lines (human, UniProt P56747 1-220)
T1 construct: also called Endogenous CLDN6+; CLDN6 on ARK2, OVCA429, UMUC4 cells
T1 sequence: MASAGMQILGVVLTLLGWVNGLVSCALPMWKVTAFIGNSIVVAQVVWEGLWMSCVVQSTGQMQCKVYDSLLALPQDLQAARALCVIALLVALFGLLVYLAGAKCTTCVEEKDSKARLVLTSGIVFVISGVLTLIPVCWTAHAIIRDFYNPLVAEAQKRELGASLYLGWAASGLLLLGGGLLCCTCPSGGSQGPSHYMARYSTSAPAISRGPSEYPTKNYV

T2: CLDN9-GFP expressed on engineered HEK293T cells (human, UniProt O95484 1-217)
T2 construct: whole, on cells; also called HEK293T CLDN9-mGFP; Artificial CLDN9+; not shown: GFP tag
T2 sequence (looked up): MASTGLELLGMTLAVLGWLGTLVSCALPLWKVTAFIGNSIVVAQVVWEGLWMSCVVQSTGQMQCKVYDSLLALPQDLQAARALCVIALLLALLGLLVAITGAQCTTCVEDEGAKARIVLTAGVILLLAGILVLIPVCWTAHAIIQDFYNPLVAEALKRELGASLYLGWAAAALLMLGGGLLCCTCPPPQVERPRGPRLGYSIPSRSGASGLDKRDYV

T3: mouse CLDN6 fused to GFP, expressed on engineered HEK293T cells (mouse, UniProt Q9Z262 1-219)
T3 construct: whole, on cells; also called HEK293T-CLDN6-mGFP Artificial CLDN6+ (mouse); murine CLDN6; not shown: GFP tag
T3 sequence (looked up): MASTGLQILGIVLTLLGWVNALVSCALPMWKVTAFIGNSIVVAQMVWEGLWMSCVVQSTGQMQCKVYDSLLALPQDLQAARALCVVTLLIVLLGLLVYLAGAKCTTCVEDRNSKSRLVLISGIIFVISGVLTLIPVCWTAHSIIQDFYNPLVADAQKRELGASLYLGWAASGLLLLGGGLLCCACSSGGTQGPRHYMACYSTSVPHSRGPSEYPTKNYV

T4: CLDN4-GFP expressed on engineered HEK293T cells (human, UniProt O14493 1-209)
T4 construct: whole, on cells; also called HEK293T CLDN4-mGFP; Artificial CLDN4+; not shown: GFP tag
T4 sequence (looked up): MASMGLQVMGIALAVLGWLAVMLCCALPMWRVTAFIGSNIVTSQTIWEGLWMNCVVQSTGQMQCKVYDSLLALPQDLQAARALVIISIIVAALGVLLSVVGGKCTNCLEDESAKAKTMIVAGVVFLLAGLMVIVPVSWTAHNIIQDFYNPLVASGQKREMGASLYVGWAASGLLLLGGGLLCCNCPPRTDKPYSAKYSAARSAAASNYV


Key:
[1] = target: T1, human CLDN6, endogenously expressed on …; assay: FACS dose curve, labelled mAb, OVCA429 cells
[2] = target: T2, CLDN9-GFP expressed on engineered …; assay: FACS dose curve, labelled mAb, HEK293T CLDN9-mGFP cells
[3] = target: T3, mouse CLDN6 fused to GFP, expressed on …; assay: FACS dose curve, labelled mAb, HEK293T-CLDN6-mGFP (mouse) cells
[4] = target: T4, CLDN4-GFP expressed on engineered …; assay: FACS dose curve, labelled mAb, HEK293T CLDN4-mGFP cells
[5] = target: T1, human CLDN6, endogenously expressed on …; assay: FACS dose curve, labelled mAb, ARK2 cells

Binder | EC50 [1] | EC50 [2] | EC50 [3] | EC50 [4] | EC50 [5]
AB12 (antibody, V domains shown, Full-length IgG (ExpiCHO)) VH: EVKLMESGGDLVKPGGSLKLSCAASGFTFSSYAMSWVRQTPEKRLEWVASIRSGGTTYYPDSVKGRFTISRDNARNILYLRMSSLRSEDTAIYYCAKVGGNPYPMDYWGQGTSVTVSS VL: DIQMIQSPSSMFASLGDRVSLSCRASQDIGGNLDWYQQKPGGTIKLLIYSTSNLNSGVPSRFSGSGSGSDYSLTITSLESEDFADYYCLQRNAYPLTFGAGTKLELK | 2290 nM | 2470 nM | – | 2090 nM | 1300 nM
AB11 (antibody, V domains shown, Full-length IgG (ExpiCHO)) VH: DVQLVESGGGLVQPRGSRKLSCAASGFTFSSFGMHWVRQAPEKGLEWVAYISSDSRTIYYADTVKGRFTISRDNPTNTLFLQMTSLRSEDTAMYYCARDYGRTYEAYWGQGTLVTVSA VL: DIVLTQSPASLAVSLGQRATISCRASKSVSTSGYSYIHWYQQKPGQPPKLLIYLASNLESGVPARFSGSGSGTDFTLNIHPVEEEDAATYYCQHSRELPLTFGAGTKLELK | 835 nM | – | 2380 nM | 2240 nM | 363 nM
AB15 (antibody, V domains shown, Full-length IgG (ExpiCHO)) VH: DVQLVESGGGLVQPRGSRKLSCAASGFTFSSFGMHWVRQAPEKGLEWVAYISSDSRTIYYADTVKGRFTISRDNPTNTLFLQMTSLRSEDTAMYYCARDYGRTYEAYWGQGTLVTVSA VL: NIMMTQSPSSLAVSAGEKVTMSCKSSQSVLFSSNQKNYLAWYQQKPGQSPRLLIYWASTRESGVPDRFTGSGSGTDFTLTISNVQAEDLAVYYCHQYLSSRTFGAGTKLELK | – | – | ≥ 5000 nM | ≥ 5000 nM | –
AB8 (antibody, V domains shown, Full-length IgG (ExpiCHO)) VH: QVQLQQSGAELARPGASVKMSCKASGYTFTTYTMHWLKQRPGQGLEWIGYINPRSGYSNYNQKFKDKATLTADKSSNTAYMQLNTLTSEDSKVYYCSRGELGGFAYWGQGTLVTVSA VL: DVVMTQTPLSLPVSLGDQASISCRSSQSLVHSDGNTYLYWYLQKPGQSPKLLIYKVSNRFSGVPDRFSGSGSGTDFTLKISRVEAEDLGVYFCSQSTHVPYTFGGGTKLEIK | 1090 nM | 2770 nM | ≥ 5000 nM | ≥ 5000 nM | 1140 nM

Results, then the binder that gave them:

EC50 [1] | EC50 [2] | EC50 [3] | EC50 [4] | EC50 [5] | Binder
531 nM | 1940 nM | 1550 nM | 2090 nM | 353 nM | AB7 (antibody, V domains shown, Full-length IgG (ExpiCHO)) VH: EVQLQQSGPELVKPGASMKISCKASGYSFTGYTMNWVKQSHGKNLEWIGLINPYNGGTNYNQKFKGKATLTVDKSSSTAYMELLSLTSEDSAVYYCARGVYDYDGFTYWGQGTLVTVSA VL: QIVLTQSPAIMSASLGDRVTMTCTASSSVSSSYLHWYQQKPGSSPKLWIYSTSNLASGVPARFSGSGSGTSYSLTISSMEAEDAATYYCHQYHRSPPTFGSGTKLEIK
394 nM | 2770 nM | 2220 nM | 26 nM | 765 nM | AB6 (antibody, V domains shown, Full-length IgG (ExpiCHO)) VH: DVQLQESGPGLVKSSQSLSLTCSVTGYSITSGYYWKWIRQFPGNKLEWMGYISYDGGINYNPSLKNRISITRDTSKNQFFLKLNSVTTEDTAKYYCARFGKGAMDYWGQGTSVTVSS VL: AIVMFQSPSSLVVSAGEKVTMSCKSSQSLLNSRTRKNYLAWYQQKPGQSPKLLIYWASTRESGVPDRFTGSGSGTDFTLTISSVQAEDLAVYYCKQSYYLYTFGGGTKLEIK
